Measurements reported in patent US8497352B2, “Use of Wnt5-α peptide derivates for the treatment of melanoma and gastric cancer” (Wntresearch AB, priority 2008, dated 2013).

Key:
A2058 melanoma cells = experiment: Cell adhesion assay, A2058 cells; type: cell-based, human; conditions: recombinant Wnt-5a, 60 min adhesion
Procedure: Cells pre-treated and stimulated as described below were detached with Versene, re-suspended in serum-free RPMI medium and samples containing 30,000 cells from each treatment group were added to each well of a 96-well plate The cells were allowed to adhere for 60 min at 37° C. in a humidified atmosphere of 5% carbon dioxide after which the non-adherent cells were washed away with PBS. The adherent cells were fixed in 1% glutaraldehyde for 10 min at room temperature and then stained with 0.5% crystal violet in 20% methanol for 10 min. Finally the stain from each group of cells was dissolved in 50% acetic acid. The amount of dissolved stain from each well was thereafter measured in a Fluostar plate reader (BMG Lab Technologies GmbH, Offenberg, Germany) at 544 nm. The individual samples from each separate experiment were analysed in quadruplicate and the accumulated data were based on 5 separate experiments. The results are illustrated in FIG. 4. • A) A2058 melanoma cells were stimulated with the indicated concentrations of Wnt-5a, detached with Versene and resuspended as single cells in serum-free medium in the presence or absence of recombinant Wnt-5a at the indicated concentrations. Cells were then allowed to adhere in a 96-well plate. After a period of 60 min the non-adherent cells were washed away while the adherent cells were stained and their number determined. This number is presented as a percentage of the control (no Wnt-5a) stimulation (FIG. 4A) • B) A2058 melanoma cells were cultured to confluence in a 12-well plate after which a scratch was inflicted in each well, the medium was changed to fresh serum-free medium lacking (closed circles) or containing 0.2 μg/ml Wnt-5a (open squares). (FIG. 4B) • C) A2058 melanoma cells were cultured to confluence in a 12-well plate after which a scratch was inflicted to each well, the medium was changed to fresh serum-free medium in the absence of any additive (closed circle), the presence of 0.2 μg/ml Wnt-5a alone (open squares) or the presence of 0.2 μg/ml Wnt-5a with 100 μM Box5 (open triangle). (FIG. 4C) • D) HTB63 melanoma cells were cultured to confluence in a 12-well dish after which a scratch was inflicted to each well, the medium was changed to fresh serum-free medium (closed circle), conditioned medium (open squares) or conditioned medium supplemented with 100 μM Box5 (open triangle). To record changes in migration in panels B-D, a picture was taken from each scratch/well from the same area of cells after 0, 16, 24, 40 or 48 hours, and the wound-healing was expressed as percentage of wound area closed. […] The cells were then allowed to invade for 24 hours after which the attached cells on the lower side of the membrane were counted. […]

PKC = experiment: MARCKS phosphorylation (PKC activity) in A2058 cells, Western blot; type: cell-based, human; conditions: rWnt-5a 0.2 μg/ml
Procedure: The cells were either directly lysed in 1× Laemmli buffer containing DTT and boiled for 10 min, or lysed in buffer containing 50 mM Tris-HCl (pH 7.5), 1% Triton X-100, 100 mM NaCl, 10 mM MgCl2, 20% glycerol, 1 mM Na3VO4, and protease inhibitors (20 μg/ml aprotinin, 1 μg/ml leupeptin, 2.5 mM benzamidine, and 2 mM pefabloc). Cell treated with lysis buffer were centrifuged at 15,000 rpm for 5 min at 4° C. The protein content in each sample was determined and adjusted to ensure equal loading of protein in each lane. Thereafter, 50 mM DTT and 5× concentrated Laemmli buffer was added and the samples boiled for 5 min. The samples were separated by SDS polyacrylamide gel electrophoresis and subsequently transferred to PVDF membranes. For immunoblotting the membranes were blocked in PBS supplemented with 0.2% Tween 20 and 1% non-fat milk for Wnt-5a or 3% non-fat milk as for all other antibodies for 1 h. […] Finally, the Ab-antigen complexes were detected using enhanced chemiluminescence. […]
In the present study the level of PKC auto-phosphorylation (Weeraratna et al., 2002, Dissanayake et al., 2007) was not estimated since its relation to PKC kinase activity is unclear. Instead the effects of Wnt-5a and Box5 on the phosphorylation of the endogenous PKC substrate MARCKS were analyzed as a direct means of estimating the activity level of PKC in the melanoma cells. […]

B1: Wnt-5a: human recombinant Wnt-5a protein from R&D Systems (protein, UniProt P41221 62-380, looked up)
Protein Wnt-5a: IIGAQPLCSQLAGLSQGQKKLCHLYQDHMQYIGEGAKTGIKECQYQFRHRRWNCSTVDNTSVFGRVMQIGSRETAFTYAVSAAGVVNAMSRACREGELSTCGCSRAARPKDLPRDWLWGGCGDNIDYGYRFAKEFVDARERERIHAKGSYESARILMNLHNNEAGRRTVYNLADVACKCHGVSGSCSLKTCWLQLADFRKVGDALKEKYDSAAAMRLNSRGKLVQVNSRFNSPTTQDLVYIDPSPDYCVRNESTGSLGTQGRLCNKTSEGMDGCELMCCGRGYDQFKTVQTERCHCKFHWCCYVKCKKCTEIVDQFVCK
- Concentration giving maximal effect on adhesion of A2058 cells (A2058 melanoma cells): 0.2 µg/mL
- Effect on adhesive capacity of A2058 cells (A2058 melanoma cells): enhanced
- Effect on phosphorylation of MARCKS (PKC): increased phosphorylation
